Positions count from the first letter of the chain named.
T1: TnpAREP Ec (TnpAEc-His6) (Escherichia coli, UniProt Q47152 1-165)
T1 sequence: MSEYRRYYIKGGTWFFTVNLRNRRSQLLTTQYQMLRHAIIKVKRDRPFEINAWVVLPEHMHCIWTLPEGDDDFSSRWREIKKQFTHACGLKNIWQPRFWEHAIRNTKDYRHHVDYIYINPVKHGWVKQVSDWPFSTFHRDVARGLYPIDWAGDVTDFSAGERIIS

B1: B268i (61) wt y REPEc (structured_DNA)
DNA: GTAGGACGGATAAGGCGTTTACGCCGCATCCGGCAGTTGTACGCAGGTGCCTGATGCGACG
B2: B268i (61) GTGG (structured_DNA)
DNA: B1 DNA with A3G
B3: B268i (61) GTAC (structured_DNA)
DNA: B1 DNA with G4C
B4: B2689 mut loop (complement of loop) (structured_DNA)
DNA: B1 DNA with T19A, T20A

Target: T1, TnpAREP Ec (TnpAEc-His6)
Experiment: EMSA; 2 and 4 uM protein, no divalent metal; EMSA: 12.5 mM Tris pH 7.5, 120 mM NaCl, 1 mM DTT, 20 ug/ml BSA, 0.5 ug poly-dIdC, 7% glycerol, no divalent metal; 0.02 uM labelled + 0.5 uM unlabelled oligonucleotide, 45 min 37 C (standard reaction); 8% native gel (TAE, 7% glycerol) at 4 C
Details: protein: recombinant, tags: His6 (C-terminal by name), chain copies: 2, label: 5'-32P

| Binder | binding result | binding result (hairpin with bulge) |
| --- | --- | --- |
| GTAGGACGGATAAGCATCCGGCAGTTGTACGCAGGTGCCTGATGCGACG (structured_DNA) [B2688 del upper stem and loop] | no binding | – |
| B1 | – | binds |
| B2 | – | no binding |
| B3 | – | no binding |
| B4 | – | binds |
